In patent publication US20230257453A1 (published 2023) one finds EC50 data, which are given here for seven molecules.

Experiment [1] concerns the target denatured human collagen I (UniProt P02452 162-1218; P08123 80-1119). The experiment in a line: ELISA. Background: In an ELISA, binding on a coated surface is turned into a signal by an enzyme label.
Experiment [2] concerns the target denatured human collagen type IV (UniProt P02462 173-1669; P08572 184-1712). Description: ELISA.

One may read the EC50 as the midpoint of the concentration-response curve. Low values mean an effect from little substance, high ones a need for much substance.

denatured human collagen type IV, sequence (P02462 173-1669, chain 1 of 2): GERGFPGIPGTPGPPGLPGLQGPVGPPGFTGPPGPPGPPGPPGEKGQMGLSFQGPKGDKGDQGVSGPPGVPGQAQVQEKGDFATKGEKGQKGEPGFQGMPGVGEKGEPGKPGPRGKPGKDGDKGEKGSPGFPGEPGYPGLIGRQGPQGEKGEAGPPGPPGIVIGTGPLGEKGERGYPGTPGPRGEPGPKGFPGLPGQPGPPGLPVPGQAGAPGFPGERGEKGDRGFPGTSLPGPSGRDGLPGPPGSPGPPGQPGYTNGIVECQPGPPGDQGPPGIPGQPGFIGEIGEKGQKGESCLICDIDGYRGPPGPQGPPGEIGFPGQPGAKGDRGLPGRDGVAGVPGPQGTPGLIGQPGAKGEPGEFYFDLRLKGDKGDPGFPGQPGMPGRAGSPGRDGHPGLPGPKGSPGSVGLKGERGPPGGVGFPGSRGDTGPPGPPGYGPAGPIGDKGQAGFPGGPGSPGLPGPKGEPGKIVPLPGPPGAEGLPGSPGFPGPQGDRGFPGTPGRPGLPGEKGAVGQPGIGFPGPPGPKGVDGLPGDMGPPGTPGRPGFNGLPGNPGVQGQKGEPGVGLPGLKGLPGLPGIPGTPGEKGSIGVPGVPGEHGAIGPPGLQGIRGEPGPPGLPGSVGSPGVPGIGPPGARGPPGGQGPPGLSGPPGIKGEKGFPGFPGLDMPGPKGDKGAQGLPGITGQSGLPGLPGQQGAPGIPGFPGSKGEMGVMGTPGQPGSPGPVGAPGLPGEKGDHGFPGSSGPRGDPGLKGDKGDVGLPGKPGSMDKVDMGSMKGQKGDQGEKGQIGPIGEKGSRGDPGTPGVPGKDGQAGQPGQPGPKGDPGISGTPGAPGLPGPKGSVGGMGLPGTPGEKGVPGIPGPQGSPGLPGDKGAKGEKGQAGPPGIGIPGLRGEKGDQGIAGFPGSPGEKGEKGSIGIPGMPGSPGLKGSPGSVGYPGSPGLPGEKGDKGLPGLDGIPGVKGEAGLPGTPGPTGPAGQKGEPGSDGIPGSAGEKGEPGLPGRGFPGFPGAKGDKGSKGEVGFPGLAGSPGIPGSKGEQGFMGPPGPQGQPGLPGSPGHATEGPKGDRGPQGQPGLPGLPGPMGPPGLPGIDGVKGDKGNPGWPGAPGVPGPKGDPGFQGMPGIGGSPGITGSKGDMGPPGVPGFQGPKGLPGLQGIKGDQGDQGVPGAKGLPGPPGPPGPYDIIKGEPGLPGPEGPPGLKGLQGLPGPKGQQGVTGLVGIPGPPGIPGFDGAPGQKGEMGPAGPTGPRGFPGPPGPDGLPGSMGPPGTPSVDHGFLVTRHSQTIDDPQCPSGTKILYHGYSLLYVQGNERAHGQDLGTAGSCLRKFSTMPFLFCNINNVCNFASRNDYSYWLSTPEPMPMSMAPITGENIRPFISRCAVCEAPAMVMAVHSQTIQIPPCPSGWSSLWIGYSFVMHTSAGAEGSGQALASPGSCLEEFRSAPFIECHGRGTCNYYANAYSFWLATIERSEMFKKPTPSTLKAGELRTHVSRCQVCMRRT
denatured human collagen type IV, sequence (P08572 184-1712, chain 2 of 2): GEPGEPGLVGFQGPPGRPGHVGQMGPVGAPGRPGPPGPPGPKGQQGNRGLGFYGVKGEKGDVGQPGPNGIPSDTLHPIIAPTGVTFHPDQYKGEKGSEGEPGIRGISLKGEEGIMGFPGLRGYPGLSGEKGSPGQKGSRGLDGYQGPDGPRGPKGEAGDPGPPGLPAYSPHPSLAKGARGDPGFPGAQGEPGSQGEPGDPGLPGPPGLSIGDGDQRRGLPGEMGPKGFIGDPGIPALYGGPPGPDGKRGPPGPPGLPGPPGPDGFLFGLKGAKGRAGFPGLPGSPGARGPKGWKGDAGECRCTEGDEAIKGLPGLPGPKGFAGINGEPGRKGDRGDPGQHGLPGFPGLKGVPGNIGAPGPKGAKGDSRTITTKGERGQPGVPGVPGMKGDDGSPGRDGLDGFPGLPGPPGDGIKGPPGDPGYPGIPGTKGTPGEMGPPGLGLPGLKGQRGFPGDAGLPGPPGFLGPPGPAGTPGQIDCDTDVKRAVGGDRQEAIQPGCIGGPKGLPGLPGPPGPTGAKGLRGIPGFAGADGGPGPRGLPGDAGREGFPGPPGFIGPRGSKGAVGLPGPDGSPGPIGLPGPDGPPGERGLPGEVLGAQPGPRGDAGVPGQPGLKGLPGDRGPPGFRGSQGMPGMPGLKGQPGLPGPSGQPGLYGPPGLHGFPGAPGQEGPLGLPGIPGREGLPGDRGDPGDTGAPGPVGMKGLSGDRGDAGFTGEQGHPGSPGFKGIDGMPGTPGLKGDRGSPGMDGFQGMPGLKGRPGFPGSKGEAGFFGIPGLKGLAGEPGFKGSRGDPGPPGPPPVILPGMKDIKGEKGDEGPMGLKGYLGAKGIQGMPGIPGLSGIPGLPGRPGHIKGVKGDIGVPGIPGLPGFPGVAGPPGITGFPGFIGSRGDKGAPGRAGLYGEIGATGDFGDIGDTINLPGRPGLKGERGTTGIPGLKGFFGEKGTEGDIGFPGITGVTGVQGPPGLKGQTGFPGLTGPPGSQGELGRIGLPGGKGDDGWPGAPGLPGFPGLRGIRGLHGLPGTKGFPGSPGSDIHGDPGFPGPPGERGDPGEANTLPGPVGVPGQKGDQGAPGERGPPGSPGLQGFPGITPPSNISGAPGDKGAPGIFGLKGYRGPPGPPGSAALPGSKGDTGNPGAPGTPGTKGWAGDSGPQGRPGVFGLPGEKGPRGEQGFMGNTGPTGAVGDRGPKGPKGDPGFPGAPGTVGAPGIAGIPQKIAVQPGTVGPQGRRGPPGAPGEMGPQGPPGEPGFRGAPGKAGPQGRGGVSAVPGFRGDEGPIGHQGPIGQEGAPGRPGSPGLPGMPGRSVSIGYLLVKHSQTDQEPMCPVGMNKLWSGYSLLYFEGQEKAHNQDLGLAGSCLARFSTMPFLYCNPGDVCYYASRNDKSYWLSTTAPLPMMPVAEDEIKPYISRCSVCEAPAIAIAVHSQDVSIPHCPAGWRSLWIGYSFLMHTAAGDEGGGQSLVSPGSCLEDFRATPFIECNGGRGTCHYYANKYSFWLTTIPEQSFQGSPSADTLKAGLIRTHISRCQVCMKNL
denatured human collagen I, sequence (P02452 162-1218 A1075T, chain 1 of 2): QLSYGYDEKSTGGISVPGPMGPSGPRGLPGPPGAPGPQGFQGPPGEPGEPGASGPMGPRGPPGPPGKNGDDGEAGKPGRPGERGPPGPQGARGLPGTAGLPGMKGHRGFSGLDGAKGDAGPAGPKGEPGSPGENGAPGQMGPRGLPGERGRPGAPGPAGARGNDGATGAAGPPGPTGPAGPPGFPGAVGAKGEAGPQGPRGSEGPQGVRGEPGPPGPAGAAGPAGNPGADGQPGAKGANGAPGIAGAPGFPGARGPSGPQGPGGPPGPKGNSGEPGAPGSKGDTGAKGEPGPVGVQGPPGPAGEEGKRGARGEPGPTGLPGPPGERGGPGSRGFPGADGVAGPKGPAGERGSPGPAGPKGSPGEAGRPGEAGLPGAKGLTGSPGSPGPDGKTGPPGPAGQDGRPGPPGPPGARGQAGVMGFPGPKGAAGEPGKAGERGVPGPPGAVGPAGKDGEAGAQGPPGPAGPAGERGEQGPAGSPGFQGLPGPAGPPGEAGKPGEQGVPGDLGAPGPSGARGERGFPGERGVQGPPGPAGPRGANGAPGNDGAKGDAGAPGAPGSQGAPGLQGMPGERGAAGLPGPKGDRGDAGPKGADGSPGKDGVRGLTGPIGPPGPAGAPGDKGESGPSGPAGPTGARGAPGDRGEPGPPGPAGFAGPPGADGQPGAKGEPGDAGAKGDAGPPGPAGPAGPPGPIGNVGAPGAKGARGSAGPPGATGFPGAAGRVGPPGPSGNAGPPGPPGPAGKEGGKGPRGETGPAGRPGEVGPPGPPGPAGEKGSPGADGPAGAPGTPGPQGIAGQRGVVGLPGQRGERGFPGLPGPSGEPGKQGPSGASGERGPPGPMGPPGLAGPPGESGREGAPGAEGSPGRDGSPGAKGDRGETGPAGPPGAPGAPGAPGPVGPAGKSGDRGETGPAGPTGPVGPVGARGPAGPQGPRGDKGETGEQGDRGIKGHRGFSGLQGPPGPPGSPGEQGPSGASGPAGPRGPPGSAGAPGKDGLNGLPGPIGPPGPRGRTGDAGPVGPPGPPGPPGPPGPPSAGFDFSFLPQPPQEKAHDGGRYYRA
denatured human collagen I, sequence (P08123 80-1119, chain 2 of 2): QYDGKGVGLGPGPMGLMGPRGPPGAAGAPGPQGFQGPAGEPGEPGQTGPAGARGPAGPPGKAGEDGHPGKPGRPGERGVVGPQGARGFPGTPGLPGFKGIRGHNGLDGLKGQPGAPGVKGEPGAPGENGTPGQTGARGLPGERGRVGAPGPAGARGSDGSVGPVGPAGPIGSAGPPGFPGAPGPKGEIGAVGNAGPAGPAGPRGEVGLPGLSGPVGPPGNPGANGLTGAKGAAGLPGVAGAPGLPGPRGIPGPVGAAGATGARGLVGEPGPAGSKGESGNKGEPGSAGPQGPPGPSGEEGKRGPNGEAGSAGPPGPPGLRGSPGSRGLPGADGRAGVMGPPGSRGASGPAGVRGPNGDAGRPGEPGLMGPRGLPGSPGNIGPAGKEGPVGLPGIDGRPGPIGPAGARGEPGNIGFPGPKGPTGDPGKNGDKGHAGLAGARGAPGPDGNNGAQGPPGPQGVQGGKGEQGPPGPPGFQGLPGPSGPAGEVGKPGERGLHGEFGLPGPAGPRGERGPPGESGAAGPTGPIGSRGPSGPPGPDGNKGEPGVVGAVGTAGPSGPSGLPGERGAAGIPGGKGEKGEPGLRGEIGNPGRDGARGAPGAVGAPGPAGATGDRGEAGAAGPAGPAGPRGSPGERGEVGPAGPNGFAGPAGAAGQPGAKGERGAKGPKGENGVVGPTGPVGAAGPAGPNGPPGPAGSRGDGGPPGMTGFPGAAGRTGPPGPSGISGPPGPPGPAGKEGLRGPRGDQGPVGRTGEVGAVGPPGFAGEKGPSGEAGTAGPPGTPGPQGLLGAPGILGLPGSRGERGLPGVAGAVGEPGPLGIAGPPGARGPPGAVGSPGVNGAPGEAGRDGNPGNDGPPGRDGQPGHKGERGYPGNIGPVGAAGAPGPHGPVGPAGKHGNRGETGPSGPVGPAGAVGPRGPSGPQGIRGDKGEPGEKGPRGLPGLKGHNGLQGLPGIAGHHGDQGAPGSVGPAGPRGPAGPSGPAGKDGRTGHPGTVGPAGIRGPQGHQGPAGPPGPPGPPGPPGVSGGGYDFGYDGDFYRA

B1: P27562716 (antibody, V domains shown)
VH: EVQLVESGGGLVQPGGSLRLSCAASGFTFSTPGMGVWWVRQAPGKGLEWLADIWWDDNKYTNPSLKSRFTISRDNAKNSLYLQMNSLRAEDTAVYYCARRANYGNPYYAQDYWGQGTTVTVSS
VL: DIVMTQTPLSLPVTPGEPASISCRSSQSIVSSWGNTYLEWYLQKPGQSPQLLIYKVSNRFSGVPDRFSGSGSGTDFTLKISRVEAEDVGVYYCFQGSHVPWTFGQGTKVEIKR
With B1, the EC50 amounted to 36.2 nM in experiment [1] and 12 nM in experiment [2].

B2: P27532716 (antibody, V domains shown)
VH: EVQLVESGGGLVQPGGSLRLSCAASGFTLSTPGMGVWWVRQAPGKGLEWVADIWWDDNKYTNPSLKSRFTISRDNAKNSLYLQMNSLRAEDTAVYYCARRANYGNPYYAQDYWGQGTTVTVSS
VL: DIVMTQTPLSLPVTPGEPASISCRSSQSIVSSWGNTYLEWYLQKPGQSPQLLIYKVSNRFSGVPDRFSGSGSGTDFTLKISRVEAEDVGVYYCFQGSHVPWTFGQGTKVEIKR
For B2, the half-maximal effective concentration (EC50) in experiment [1] stood at 18.3 nM; in experiment [2], 9.01 nM.

B3: P27542716 (antibody, V domains shown)
VH: EVQLVESGGGLVQPGGSLRLSCAASGFSLSTPGMGVWWVRQAPGKGLEWVADIWWDDNKYTNPSLKSRFTISRDNAKNSLYLQMNSLRAEDTAVYYCARRANYGNPYYAQDYWGQGTTVTVSS
VL: DIVMTQTPLSLPVTPGEPASISCRSSQSIVSSWGNTYLEWYLQKPGQSPQLLIYKVSNRFSGVPDRFSGSGSGTDFTLKISRVEAEDVGVYYCFQGSHVPWTFGQGTKVEIKR
Turning to B3, the values for the EC50 in experiment [1] and in experiment [2] were 14.8 nM and 6.37 nM, respectively.

B4: P27552716 (antibody, V domains shown)
VH: EVQLVESGGGLVQPGGSLRLSCAASGFTFSTPGMGVWWIRQAPGKGLEWVADIWWDDNKYTNPSLKSRFTISRDNAKNSLYLQMNSLRAEDTAVYYCARRANYGNPYYAQDYWGQGTTVTVSS
VL: DIVMTQTPLSLPVTPGEPASISCRSSQSIVSSWGNTYLEWYLQKPGQSPQLLIYKVSNRFSGVPDRFSGSGSGTDFTLKISRVEAEDVGVYYCFQGSHVPWTFGQGTKVEIKR
Regarding B4, the 50% effective concentration (EC50) in experiment [1] was found to be 36.6 nM; in experiment [2] it was 12.2 nM.

B5: P27522716 (antibody, V domains shown)
VH: EVQLVESGGGLVQPGGSLRLSCAASGFSFSTPGMGVWWVRQAPGKGLEWVADIWWDDNKYTNPSLKSRFTISRDNAKNSLYLQMNSLRAEDTAVYYCARRANYGNPYYAQDYWGQGTTVTVSS
VL: DIVMTQTPLSLPVTPGEPASISCRSSQSIVSSWGNTYLEWYLQKPGQSPQLLIYKVSNRFSGVPDRFSGSGSGTDFTLKISRVEAEDVGVYYCFQGSHVPWTFGQGTKVEIKR
With B5, the values for the concentration for a half-maximal effect (EC50) in experiment [1] and in experiment [2] were 22.1 nM and 16.1 nM, respectively.

B6: P27122797 (antibody, V domains shown)
VH: QVTLKESGPALVKPTQTLTLTCTFSGFSLSTSGMGVGWIRQPPGKALEWLADIWWDDNKYANPSLKSRLTISKDTSKNQVVLTMTNMDPVDTATYYCARRANYGNPYYAQDYWGQGTTVTVSS
VL: DIVMTQTPLSLPVTPGEPASISCRSSQSIVHSSGNTYLEWYLQKPGQSPQLLIYKVSNRFSGVPDRFSGSGSGTDFTLKISRVEAEDVGVYYCFQGSHVPWTFGQGTKVEIKR
Regarding B6, the values for the EC50 in experiment [1] and in experiment [2] were 8570 nM and 32.6 nM, respectively.

B7: P27122798 (antibody)
chain 1: not shown
chain 2: DIVMTQTPLSLPVTPGEPASISCRSSQSIVHSNANTYLEWYLQKPGQSPQLLIYKVSNRFSGVPDRFSGSGSGTDFTLKISRVEAEDVGVYYCFQGSHVPWTFGQGTKVEIKRTVAAPSVFIFPPSDEQLKSGTASVVCLLNNFYPREAKVQWKVDNALQSGNSQESVTEQDSKDSTYSLSSTLTLSKADYEKHKVYACEVTHQGLSSPVTKSFNRGEC
As for B7, the EC50 in experiment [1] came to 27.2 nM; in experiment [2], 10.8 nM.
